This note sets out measurements from the DeepSol protein solubility set.

The nature of the data set: soluble on expression in E. coli; label from the status in PepcDB or PDB records.
Regarding “MGSDKIHHHHHHMNKMKIAHLTSAHPRHDIRIFVKECSSLAAAGHEVTLIVADGQGEEIRNGVRIHDVGPKRGGRLARMTGTVKRVYQAALRLRPDVVHFHDPELIPAGVRLKQAGIKVVYDVHEDVPRQILAKHWIPGAVRPLVSGGFETLEDWAARRFDAIVTSTPHIRKRFERLGANALDVCNFPILEELVRDTPWESRRNEVCYIGGISRIRGIEPIVAALPDTSTRLNLAGPWSESDLRAKVTAEPGWARVNDLGVLDRKGVAEVLARSKIGLVTLFPTPNYVDALPIKLFEYMAAGMPVIASDFPVWREIVADAGCGVLVDPQDAAAIAAAINELLGDEERMRKLGESGKRAVLSKYSWAAEADKLVALYASL”, the “soluble on expression in E. coli” value is given as “not soluble”. “AGMSLTQVSGPVYVVEDNYYVQENSMVYFGAKGVTVVGATWTPDTARELHKLIKRVSRKPVLEVINTNYHTDRAGGNAYWKSIGAKVVSTRQTRDLMKSDWAEIVAFTRKGLPEYPDLPLVLPNVVHDGDFTLQEGKVRAFYAGPAHTPDGIFVYFPDEQVLYGGCILKEKLGNLSFADVKAYPQTLERLKAMKLPIKTVIGGHDSPLHGPELIDHYEALIKAAPQSS”: the “soluble on expression in E. coli” value is recorded as “soluble”. For “GMTRTMSFHKNCELCTTAGGEILWQDALCRVVHVENQDYPGFCRVILNRHVKEMSDLRPAERDHLMLVVFAVEEAVREVMRPDKINLASLGNMTPHVHWHVIPRFKRDRHFPNSVWGETKRESLPQALDQGSTTALKKAISVRLDQGEPVFMGM”, the “soluble on expression in E. coli” value is “soluble”. In the case of “MDYTEESAQIPEMAEKLGIPTSRKETKTLELPVSIDFRNWCSPIEDQMDLGSCTAHAGVGVVEYFERRAFGKHIDGSRFFVYKTTRNLMGVKGDTGAWLRNTMGALALCGVPPEKYFPYTSRKTPGPDGEPTFDDEPSSFVYSLADNFEALNYFCHDPQGMNLPPEDVILSVKKYLAAGIPSMFGFYGFPSFKDTDVKGGIPFPGPDERSIWGHAVVAVGYDDNMKIRNTLSNKETTGAFLIRNSWGTAWGDKGYGWLPYEYALNKFALDFWSLISMKWVETGNFGLELESSRSRARETLSRDMPLPHALEHHHHHH”, the “soluble on expression in E. coli” value was “not soluble”. On to “MGSDKIHHHHHHMNFNSDLLNLNSKSPAFSITIEGKDVTTVMDARLMSLTLTDNRGFEADQLDLELDDADGQIVLPRRGAVIHLALGWKGQPLFPKGAFTVDEIEHSGAPDRLTIRARSADFRETLNTRREKSWHQTTVGEVVKEIAARHNLKVALGQDLTDKALDHMDQTNESDASFLMKLARQYGAIASVKDGNLLFIRQGQGRTASGKPLPVITITRKAGDGHRFTLADRGAYTGVIASWLHTREPRKKETTSVKRRRKKATTPKEPEAKQGDYLVGTDENVLVLNRTYANRSNAERAAKMQWERLQRGVASFSLQLAEGRADLYTEMPVKVTGFKQPIDDAEWTITTLTHSVSPDNGFTTSMELEVKIDDLEIE”, for which the “soluble on expression in E. coli” value is reported as “not soluble”. Take “MLLKPEEYIERLGEYKRDIYVLGKKIEDFVNHPNIRPTVEAMAYTYSIAEKYAPHSELVGEKVNRLNYVNQTFEDLIARYDYQRELSLKLATCNYRCTGCDAINAIYPATKALDEREGTDYHRRFLELLKEIQKKDYACTAALTDVKGDRGKRPSEQKDKYLRVVEKREDGIVVRGAKICQSGAFAADVNFVLPTQTFRPGEEEFAVVFAAMPEDEGIKYILQNTGIQAKQREGGKFEAGNKYGDRTTCMVVFDDVFIPWERVFVFEDLKAARDVVSYFAPSHRCVGAACKAGFIDSMAGAASLMLKTSGLENVSALQQKVAEMVAVSEGAFAISVGAAVKGANHNGCWLPNFQMANSGKVIGVEGFAKALMNLIDISGGIIGTSPSEFDLEMVGDFLRASEKFTAEQRLKIVKFIEFWTTSSHLVGAFHGGGSPTAALITLRFLMDLSSREEAVKNCIDF”: the “soluble on expression in E. coli” value was “not soluble”. For “MAHHHHHHMRPLASFRGNTQTMLYTPVQDKYSILMEDDKLRVGASSMQGWRSTMEDAHTIHLSLPGLPSHMASEDGAIAAVFDGHCGSKTSQTSAIRILEWITSMEAFGEGNMEKAIRDGFIAGDLAMQRSSPNEMSGCTGNCVLIVENHLYCGNVGDSRAVLCRDGTAIPLSEDHKPNLPRERERVLRAGGYIHNGRVNGVLSLSRALGDFAFKDSDLPPEAQAVTAIPDVVHLELTPQDEFVIIACDGVWDMVTNEKAVEIVRSEVADHSDLSLACERLMDACLSKVSTGAGTDNMTVIILQFKSFFLKKVESRFGAISCNAAE”, the “soluble on expression in E. coli” value is “not soluble”. On to “MTGQTVECIRSAGVVGAGGAGLPTHIKADASVDTVLVNGASCEPLLMSDPYLIQAHPDIVIRGLLAVMDCTGARRGIICLKGKHAAAMAAVRGAVTREGSGRLEVFELRDFYPAGDEHVLVHEVLGRTVPQGGIPLQIGAVVSNVETLYNVALAMEGAPVTHRYVTVSGEVKRHMVVKVPVGTLVSDVLTFAGGPAITEYKVVDGGPMMGRVLPHTGRPVTKTTSGLLVLPPDHTVVARKIMDPEKVRRITTSICCQCSHCTDLCPRNLLGHSLHPHRLMRVLEGQMHAGTVAREALLCSECGLCEKFACPMMVSPREINAQIKQVLRREGVRWESTGEEPVPHPFRKSRYVATGRLLRRLDLVQYDTHPGYAGEYTPHMVRIPLAQHIGAPAVCVVAPGDTVRTGDLIGEIPEKSMGARVHASISGRVESVEDGMVTIKAC”, for which the “soluble on expression in E. coli” value was “not soluble”. The value for “STMPLAELGARLYREKACFSCHSIDGSRLVGPSFKGLYGSTRTFEDGTTAVADENYLRESILQPGAKVVQGYPNVMPASYASLSEREVAALIEFIKQQQ” was “soluble”; that for “AEPESCGTVRFSDVGWTDITATTATATTILEALGYETDVKVLSVPVTYTSLKNKDIDVFLGNWMPTMEADIAPYREDKSVETVRENLAGAKYTLATNAKGAELGIKDFKDIAAHKDELDGKIYGIEPGNDGNRLIIDMVEKGTFDLKGFEVVESSEQGMLAQVARAEKSGDPIVFLGWEPHPMNANFKLTYLSGGDDVFGPNYGGATVHTNVRAGYTTECPNVDKLLQNLSFSLQMENEIMGKILNDGEDPEKAAAAWLKDNPQSIEPWLSGVATKDGGDGLAAVKAALGLEHHHHHH” was “soluble”; that for “AHHHHHHGSIRRVKREIRVIGFDDGTFPHKKRGEKVILVGIVMKGGSDVLGAVSRWITIDGLDVTEAIIDSILSSRFRGDLRVILLKGITYAGFNVVDVNRVFRETGLPLIVVVRKRPDFEAIENALRKHFEDWEKRMELIKAGGKIYELIPGKVYYQAIGIDAETAAKIIRATSRNSLIPEALRIAHIVASAVMRGESSKE” was “not soluble”. Consider “MSVDVKSDFSENESSSTPSPTTVPADVTWPHYPMMPFMQPHPLREKMLQPTFDPQIYGRWSQMGDTGFYGHPDLYPFGLPQLAANGQIPAVEAVDVKPPLSNGSSSSDSGMYPSPSDMMTPFPSTSSGAASSSELSAAAAAAANYQMRAATCYQQSVWPFMDYQQFQGFSWKMPLGNNHGKDRRSSSDGKTLPTGPGTNNVRVRTADKYRMVYSDYQRLELEKEFHTSPFITSDRKSQLSTMLSLTERQIKIWFQNRRAKDRRDKQKIRL”, for which the “soluble on expression in E. coli” value was “not soluble”. With “MMFGRFTERAQKVLALSQEEAIRIGHNNIGTEHILLGLVREGEGIAAKALIALGLSPEKVQKEVEALIGRGTEASQTVHYTPRAKKVIELSMDEARKLGHSYVGTEHILLGLIREGEGVAARVLNNLGVSLNKARQQVLQLLGSNEASSGHQGGSSTNANTPTLDSLARDLTVVARENRLDPVIGRGKEIQRVIEVLSRRTKNNPVLIGEPGVGKTAIAEGLAQQIVNNEVPETLRDKRVMTLDMGTVVAGTKYRGEFEDRLKKVMDEIRQAGNIILFIDELHTLIGAGGAEGAIDASNILKPSLARGELQCIGATTLDEYRKYIEKDAALERRFQPIHVDEPSLDESTQILKGLRDRYEAHHRVSITDDAIDAAVKLSDRYITDRFLPDKAIDLIDEAASKVRLRSYTTPPNLKELEVKLEEIRKEKDAAVQSQEFEKAASLRDMEQRLREKLEDTKRQWKEQQGKENSEVTVEDIANVVSTWTRIPVSKLAQTETDKLLNLESILHDRVIGQDEAVVAVAKAVRRARAGLKDPKRPIGSFIFLGPTGVGKTELARALAESMFGDEDAMIRIDMSEYMEKHSTSRLVGSPPGYVGYEEGGQLTEKVRRKPYSVVLLDEVEKAHPDVFNILLQVLEDGRLTDSKGRTVDFRNTIVIMTSNVGAEALKRNKHLGFNVQDESRDYSDMKGKVMDELKKAFRPEFLNRIDEIIVFHMLEKKHIQEIVTLMVNQLVNRLKEQEIELHLTEGAISAIADKGFDREYGARPLRRAIQKHVEDRLSEELLKGAIEKGQKVIFDVEGESFVIHSAEKVK”, the “soluble on expression in E. coli” value is on record as “soluble”.
